Experimental data as given in patent EP2548892A1 (CSL Behring GmbH, dated 2013).

What was measured:
[1] = target: Human FXIIa (activated Factor XII) (human) (UniProt P00748); test: cell-based or functional assay
Human FXIIa beta (human) [2] = target: Human FXIIa beta (human) (UniProt P00748); test: Biacore, KD against parental 3F7 (the reference itself)
Human FXIIa beta (human) [3] = target: Human FXIIa beta (human) (UniProt P00748); test: Biacore, purified IgG4 captured on anti-human IgG, FXIIa beta injected, 1:1 model
Human FXIIa beta (human) [4] = target: Human FXIIa beta (human) (UniProt P00748); test: Biacore, purified IgG captured on anti-human IgG, FXIIa beta injected at 0-40 nM, 1:1 model, 25°C
[5] = target: T1, Human FXII (unactivated Factor XII) (human, UniProt P00748 20-615); test: Biacore, purified IgG captured on anti-human IgG, FXII injected at 0-500 nM, 1:1 model, 25°C
T1 construct: Bought from Enzyme Research Laboratories; also called Hageman factor
T1 sequence: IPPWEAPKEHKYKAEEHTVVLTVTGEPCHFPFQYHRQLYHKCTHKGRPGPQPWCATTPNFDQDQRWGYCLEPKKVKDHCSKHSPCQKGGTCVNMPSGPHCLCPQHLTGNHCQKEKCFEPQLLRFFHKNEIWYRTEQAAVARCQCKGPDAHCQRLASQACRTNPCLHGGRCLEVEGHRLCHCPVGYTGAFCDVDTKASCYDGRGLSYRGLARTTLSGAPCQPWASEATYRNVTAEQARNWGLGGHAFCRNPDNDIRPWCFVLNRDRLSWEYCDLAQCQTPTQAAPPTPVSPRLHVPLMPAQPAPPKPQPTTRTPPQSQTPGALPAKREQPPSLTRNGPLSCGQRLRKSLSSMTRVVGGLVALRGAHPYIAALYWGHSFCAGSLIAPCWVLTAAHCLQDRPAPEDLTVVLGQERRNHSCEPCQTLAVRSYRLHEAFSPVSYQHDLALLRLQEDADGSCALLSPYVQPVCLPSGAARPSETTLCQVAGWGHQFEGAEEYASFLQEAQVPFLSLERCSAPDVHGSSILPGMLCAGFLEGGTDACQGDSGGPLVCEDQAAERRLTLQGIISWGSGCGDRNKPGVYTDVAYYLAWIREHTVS

B1: 3F7 monoclonal antibody (fully human IgG4/lambda) (antibody, V domains shown)
VH: EVQLLESGGGLVQPGGSLRLSCAASGFTFSKYIMQWVRQAPGKGLEWVSGIRPSGGTTVYADSVKGRFTISRDNSKNTLYLQMNSLRAEDTAVYYCARALPRSGYLISPHYYYYALDVWGQGTTVTVSS
VL: QSELTQPPSASGTPGQRVTISCSGSSSNIGRNYVYWYQQVPGTAPKLLIYSNNQRPSGVPDRFSGSKSGTSASLVISGLRSEDEADYYCAAWDASLRGVFGGGTKLTVLG
notes: also called 3F7 mAb; MAb 3F7
**Q.** With B1 as the binder, how does the potency in FXIIa amidolytic activity assay, against OT2 [1] read?
**A.** 2 fold

**Q.** What about the Fold affinity improvement (Human FXIIa beta (human) [2]) of the same binder?
**A.** 1 fold

**Q.** And the Kd (Human FXIIa beta (human) [3])?
**A.** 8.6 nM

**Q.** And the koff (Human FXIIa beta (human) [3])?
**A.** 0.0011 s⁻¹

**Q.** What about the kon (Human FXIIa beta (human) [3]) of the same binder?
**A.** 120000 M⁻¹ s⁻¹

**Q.** What about the Kd (Human FXIIa beta (human) [4]) of the same binder?
**A.** 6.2 nM

**Q.** What about the Kd [5] of the same binder?
**A.** 121 nM
